Measured values as given in patent US12303551B2, “Cellular immunotherapy compositions and uses thereof” (CERO THERPEUTICS HOLDINGS, INC., priority 2018, dated 2025).

Columns and labels:
HPV+ SCC152 target cells = assay: Mass cytometry (CyTOF) viSNE marker analysis of CER-transduced CD4+ T cells after antigen encounter; assay type: cell-based; details: for memory formation after antigen encounter: CER-transduced CD4+ T cells; for viSNE islands expressing T cell activation marker CD69 / viSNE islands expressing intracellular marker IFNγ: CER-transduced CD4+ T cells co-cultured with E7 TCR CD8+ T cells and SCC152; for viSNE islands expressing naïve T cell marker CD45RA within the CCR7+ population: compared to controls
Source text: FIG. 64A-64B show viSNE maps of mass cytometry data of CER-transduced CD4+ T cells upon antigen encounter. CER-transduced CD4+ T cells were co-cultured with E7-specific TCR-transduced CD8+ T cells and HPV+ SCC152 target cells and then interrogated by mass cytometry (CyTof). Intact CER-CD4+ T cells are shown in plots displaying tSNE1 and tSNE2 axes. Nine intracellular markers were used for the viSNE analysis. Each dot represents a single cell. […] FIG. 64B: Populations of CD4^+ T cells were generated using a clustering algorithm from all 32 markers and overlaid onto the viSNE map.
(§1) FIGS. 65A-65B show viSNE maps of mass cytometry data of CER-expressing CD4+ T cells upon antigen encounter. CER-transduced CD4+ T cells were co-cultured with E7-specific TCR-transduced CD8+ T cells and HPV+ SCC152 target cells and then interrogated by mass cytometry (CyTof). Intact CER-CD4+ T cells are shown in plots displaying tSNE1 and tSNE2 axes. Eighteen cell surface markers were used for the viSNE analysis. Each dot represents a single cell. FIG. 65A: Populations of CD4^+ T cells were generated using a clustering algorithm from all 18 markers and overlaid onto the viSNE map. […] FIG. 65B: Color plots show the phenotype across viSNE ‘islands.’ Red represents high expression and blue represents low expression for each marker. Highlighted region indicates cells expressing T cell activation marker CD69.
as §1, with “FIGS. 66A-66B” for “FIGS. 65A-65B”, “FIG. 66A:” for “FIG. 65A:”, “FIG. 66B:” for “FIG. 65B:”, “cells the naïve” for “cells expressing”, “cell” for “cell activation”, “marker CD45RA.” for “marker CD69.”
CD4+ T cells were transduced with lentiviral vector comprising CER104, CER116, or CER117 nucleic acid. CER104 (SEQ ID NO:139) comprises a Tim4 binding domain, Tim4 transmembrane domain, and an engulfment signaling domain comprising a primary engulfment signaling domain comprising a TLR8 signaling domain and a secondary engulfment signaling domain comprising a DAP12 signaling domain. CER116 (SEQ ID NO:152) comprises a Tim4 binding domain, Tim4 transmembrane domain, and an engulfment signaling domain comprising a primary engulfment signaling domain comprising a TRAF6 signaling domain and a secondary engulfment signaling domain comprising a TLR8 signaling domain. CER117 (SEQ ID NO:153) comprises a Tim4 binding domain, Tim4 transmembrane domain, and an engulfment signaling domain comprising a primary engulfment signaling domain comprising a TLR8 signaling domain and a secondary engulfment signaling domain comprising a TRAF6 signaling domain. CER-transduced CD4+ T cells were co-cultured with E7 TCR-transduced CD8+ T cells and HPV+ SCC152 target cells and interrogated by mass cytometry (CyTOF) with viSNE for visualization of high dimensional single cell data (FIGS. 64-66). Intact CER-transduced CD4+ T cells are shown in plots displaying tSNE1 (horizontal) and tSNE2 (vertical) axes. 27 intracellular markers were used for the viSNE analysis. Each dot represents a single cell. […] Red represents high expression and blue represents low expression for each marker. Populations of CD4^+ T cells were generated using a clustering algorithm from all 27 markers and overlaid onto the viSNE map. […] Populations of CD4^+ T cells were generated using a clustering algorithm from all 18 markers and overlaid onto the viSNE map (FIG. 65A). […]

SCC152 cells = assay: Magnitude breadth analysis of phagocytosis by CER type (pHrodo red / CELLTRACE violet microscopy); assay type: cell-based; details: 8 hours co-culture with SCC152, CD8+/E7 TCR 1:1
Protocol: Top image is an enlargement of a cell in the lower left image showing a SCC152 cell engulfed by CER126-transduced CD4+ T cell. […] White arrow indicates CD8+ T cell transduced with E7-specific TCR and that is pHrodo Red negative (lower left panel of FIG. 60B). Software rendition of phagocytosis (lower right panel of FIG. 60B).
Various CER-modified CD4+ T cells were also evaluated for breadth of response to determine whether a particular CER confers a broad phagocytic response of low magnitude (e.g., 10% engulfment in 90% of cells) or a less frequent but strong phagocytic response (e.g., 90% engulfment in 10% of cells) in the host cells. CD8+ T cells were transduced with HPV16 E7 specific TCR as described in Example 1. CD4+ T cells were transduced with lentiviral vectors comprising a CER21, CER27, CER104, CER116, or CER117 nucleic acid. Mock-transduced (vector alone) CD4+ T cell were used as control. CD4+/CER+ and CD8+/E7 TCR+ T cells were stained with CELLTRACE violet. HPV16 E7+ head and neck squamous cell carcinoma cells (SCC152) were stained with pHrodo red. HPV16 E7 TCR transduced CD8+ T cells and selected CER transduced CD4+ T cells were mixed at a 1:1 ratio and co-cultured with SCC152 cells at a 1:1 ratio for 8 hours. Phagocytosis of target SCC152 cells by CER-transduced CD4+ T cells was analyzed by fluorescence microscopy. […] The horizontal axis represents the % area of CER-transduced CD4+ T cells having engulfment or % area of the CER-transduced CD4+ T cells taken up by target SCC152 cells. This measure was rarely above 40% across CER types tested. The vertical axis represents the proportion of CER-transduced CD4+ T cells that were phagocytic. For CER104, about 20% of CER104-transduced CD4+ T cells have more than 10% engulfment. For CER117-transduced CD4+ T cells, less than 10% have more than 10% engulfment.

| Molecule | memory formation after antigen encounter (HPV+ SCC152 target cells) | viSNE islands expressing T cell activation marker CD69 (HPV+ SCC152 target cells) | viSNE islands expressing intracellular marker IFNγ (HPV+ SCC152 target cells) | viSNE islands expressing naïve T cell marker CD45RA within the CCR7+ population (HPV+ SCC152 target cells) | proportion of CER-transduced CD4+ T cells having more than 10% engulfment (SCC152 cells) |
| --- | --- | --- | --- | --- | --- |
| CER116: Chimeric engulfment receptor: Tim4 binding, Tim4 transmembrane, TRAF6 and TLR8 signaling; SEQ ID NO: 152 (protein, CER116, amino acids 1-22 are signal peptide) MSKGLLLLWLVTELWWLYLTPAASEDTIIGFLGQPVTLPCHYLSWSQSRNSMCWGKGSCPNSKCNAELLRTDGTRIISRKSTKYTLLGKVQFGEVSLTISNTNRGDSGVYCCRIEVPGWFNDVKKNVRLELRRATTTKKPTTTTRPTTTPYVTTTTPELLPTTVMTTSVLPTTTPPQTLATTAFSTAVTTCPSTTPGSFSQETTKGSAFTTESETLPASNHSQRSMMTISTDIAVLRPTGSNPGILPSTSQLTTQKTTLTTSESLQKTTKSHQINSRQTILIIACCVGFVLMVLLFLAFLMSLLNCENSCGSSQSESDCCVAMASSCSAVTKDDSVGGTASTGNLSSSFMEEIQGYDVEFDPPLESKYECPICLMALREAVQTPCGHRFCKACIIKSIRDAGHKCPVDNEILLENQLFPDNFAKREILSLMVKCPNEGCLHKMELRHLEDHQAHCEFALMDCPQCQRPFQKFHINIHILKDCPRRQVSCDNCAASMAFEDKEIHDQNCPLANVICEYCNTILIREQMPNHYDLDCPTAPIPCTFSTFGCHEKMQRNHLARHLQENTQSHMRMLAHHLFYWDVWFIYNVCLAKVKGYRSLSTSQTFYDAYISYDTKDASVTDWVINELRYHLEESRDKNVLLCLEERDWDPGLAIIDNLMQSINQSKKTVFVLTKKYAKSWNFKTAFYLALQRLMDENMDVIIFILLEPVLQHSQYLRLRQRICKSSILQWPDNPKAEGLFWQTLRNVVLTENDSRYNNMYVDSIKQY | associated with memory formation after antigen encounter | enrichment of islands expressing the T cell activation marker CD69 | enrichment of islands expressing the intracellular marker IFNγ | loss of islands expressing the naïve T cell marker CD45RA | – |
| CER117: Chimeric engulfment receptor: Tim4 binding, Tim4 transmembrane, TLR8 and TRAF6 signaling; SEQ ID NO: 153 (protein, CER117, amino acids 1-22 are signal peptide) MSKGLLLLWLVTELWWLYLTPAASEDTIIGFLGQPVTLPCHYLSWSQSRNSMCWGKGSCPNSKCNAELLRTDGTRIISRKSTKYTLLGKVQFGEVSLTISNTNRGDSGVYCCRIEVPGWFNDVKKNVRLELRRATTTKKPTTTTRPTTTPYVTTTTPELLPTTVMTTSVLPTTTPPQTLATTAFSTAVTTCPSTTPGSFSQETTKGSAFTTESETLPASNHSQRSMMTISTDIAVLRPTGSNPGILPSTSQLTTQKTTLTTSESLQKTTKSHQINSRQTILIIACCVGFVLMVLLFLAFLHHLFYWDVWFIYNVCLAKVKGYRSLSTSQTFYDAYISYDTKDASVTDWVINELRYHLEESRDKNVLLCLEERDWDPGLAIIDNLMQSINQSKKTVFVLTKKYAKSWNFKTAFYLALQRLMDENMDVIIFILLEPVLQHSQYLRLRQRICKSSILQWPDNPKAEGLFWQTLRNVVLTENDSRYNNMYVDSIKQYMSLLNCENSCGSSQSESDCCVAMASSCSAVTKDDSVGGTASTGNLSSSFMEEIQGYDVEFDPPLESKYECPICLMALREAVQTPCGHRFCKACIIKSIRDAGHKCPVDNEILLENQLFPDNFAKREILSLMVKCPNEGCLHKMELRHLEDHQAHCEFALMDCPQCQRPFQKFHINIHILKDCPRRQVSCDNCAASMAFEDKEIHDQNCPLANVICEYCNTILIREQMPNHYDLDCPTAPIPCTFSTFGCHEKMQRNHLARHLQENTQSHMRMLA | – | – | enrichment of islands expressing the intracellular marker IFNγ | – | less than 10% |
| CER104: Chimeric engulfment receptor: Tim4 binding, Tim4 transmembrane, TLR8 and DAP12 signaling; SEQ ID NO: 139 (protein, CER104, amino acids 1-22 are signal peptide) MSKGLLLLWLVTELWWLYLTPAASEDTIIGFLGQPVTLPCHYLSWSQSRNSMCWGKGSCPNSKCNAELLRTDGTRIISRKSTKYTLLGKVQFGEVSLTISNTNRGDSGVYCCRIEVPGWFNDVKKNVRLELRRATTTKKPTTTTRPTTTPYVTTTTPELLPTTVMTTSVLPTTTPPQTLATTAFSTAVTTCPSTTPGSFSQETTKGSAFTTESETLPASNHSQRSMMTISTDIAVLRPTGSNPGILPSTSQLTTQKTTLTTSESLQKTTKSHQINSRQTILIIACCVGFVLMVLLFLAFLHHLFYWDVWFIYNVCLAKVKGYRSLSTSQTFYDAYISYDTKDASVTDWVINELRYHLEESRDKNVLLCLEERDWDPGLAIIDNLMQSINQSKKTVFVLTKKYAKSWNFKTAFYLALQRLMDENMDVIIFILLEPVLQHSQYLRLRQRICKSSILQWPDNPKAEGLFWQTLRNVVLTENDSRYNNMYVDSIKQYYFLGRLVPRGRGAAEAATRKQRITETESPYQELQGQRSDVYSDLNTQRPYYK | associated with memory formation after antigen encounter | enrichment of islands expressing the T cell activation marker CD69 | enrichment of islands expressing the intracellular marker IFNγ | loss of islands expressing the naïve T cell marker CD45RA | about 20% |
